Molecular target: T1, Myocilin tagged at its C-terminus with S-peptide, Q99972
T1 chain: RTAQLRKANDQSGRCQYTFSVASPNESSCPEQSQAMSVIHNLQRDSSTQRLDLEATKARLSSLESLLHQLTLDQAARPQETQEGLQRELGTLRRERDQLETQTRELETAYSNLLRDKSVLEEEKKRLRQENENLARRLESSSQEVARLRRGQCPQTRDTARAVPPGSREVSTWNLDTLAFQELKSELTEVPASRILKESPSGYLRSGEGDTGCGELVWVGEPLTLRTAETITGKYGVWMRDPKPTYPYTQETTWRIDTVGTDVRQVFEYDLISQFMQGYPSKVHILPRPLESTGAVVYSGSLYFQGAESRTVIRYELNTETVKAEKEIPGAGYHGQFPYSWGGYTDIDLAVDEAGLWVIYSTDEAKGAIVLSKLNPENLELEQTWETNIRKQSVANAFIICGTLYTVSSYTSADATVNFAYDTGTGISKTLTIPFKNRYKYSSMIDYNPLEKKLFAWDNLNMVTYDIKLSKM

B1: S-protein (protein)
chain: SSSNYCNQMMKSRNLTKDRCKPVNTFVHESLADVQAVCSQKNVACKNGQTNCYQSYSTMSITDCRETGSSKYPNCAYKTTQANKHIIVACEGNPYVPVHFDASV
RNAase analysis of culture medium (enzymatic recombination assay): the assay can detect secreted myocilin in less than 1 µl of media

— patent US20070270486
